Laboratory results taken from patent publication EP4649952A1 (dated 2025).

T1: KRAS Q61H peptide on HLA-A*01:01 (human)
T1 peptide: ILDTAGHEEY


Molecular target: T1, KRAS Q61H peptide on HLA-A*01:01
Assay: cytokine release

| binding result | Binder |
| --- | --- |
| recognises | TCR-1 (TCR, V domains shown) Valpha: KVTQAQTEISVVEKEDVTLDCVYETRDTTYYLFWYKQPPSGELVFLIRRNSFDEQNEISGRYSWNFQKSTSSFNFTITASQVVDSAVYFCALSEANQAGTALIFGKGTTLSVSS Vbeta: EAQVTQNPRYLITVTGKKLTVTCSQNMNHEYMSWYRQDPGLGLRQIYYSMNVEVTDKGDVPEGYKVSRKEKRNFPLILESPSPNQTSLYFCASSRKVPPVYGYTFGSGTRLTVV |
| recognises | TCR-3 (TCR, V domains shown) Valpha: AQKVTQAQTEISVVEKEDVTLDCVYETRDTTYYLFWYKQPPSGELVFLIRRNSFDEQNEISGRYSWNFQKSTSSFNFTITASQVVDSAVYFCALSEAKAAGNKLTFGGGTRVLVKP Vbeta: EAQVTQNPRYLITVTGKKLTVTCSQNMNHEYMSWYRQDPGLGLRQIYYSMNVEVTDKGDVPEGYKVSRKEKRNFPLILESPSPNQTSLYFCASSRKLPPTYGYTFGSGTRLTVV |
| recognises | TCR-2 (TCR, V domains shown) Valpha: KVTQAQTEISVVEKEDVTLDCVYETRDTTYYLFWYKQPPSGELVFLIRRNSFDEQNEISGRYSWNFQKSTSSFNFTITASQVVDSAVYFCALSEANQAGTALIFGKGTTLSVSS Vbeta: EAQVTQNPRYLITVTGKKLTVTCSQNMNHEYMSWYRQDPGLGLRQIYYSMNVEVTDKGDVPEGYKVSRKEKRNFPLILESPSPNQTSLYFCASSRRWPPTDTQYFGPGTRLTVL |
